Experiment [1] concerns the target T1, deletion mutant CKAP4-HA ΔLZ (human, UniProt Q07065 1-602).
T1 construct: not shown: HA tag
T1 sequence: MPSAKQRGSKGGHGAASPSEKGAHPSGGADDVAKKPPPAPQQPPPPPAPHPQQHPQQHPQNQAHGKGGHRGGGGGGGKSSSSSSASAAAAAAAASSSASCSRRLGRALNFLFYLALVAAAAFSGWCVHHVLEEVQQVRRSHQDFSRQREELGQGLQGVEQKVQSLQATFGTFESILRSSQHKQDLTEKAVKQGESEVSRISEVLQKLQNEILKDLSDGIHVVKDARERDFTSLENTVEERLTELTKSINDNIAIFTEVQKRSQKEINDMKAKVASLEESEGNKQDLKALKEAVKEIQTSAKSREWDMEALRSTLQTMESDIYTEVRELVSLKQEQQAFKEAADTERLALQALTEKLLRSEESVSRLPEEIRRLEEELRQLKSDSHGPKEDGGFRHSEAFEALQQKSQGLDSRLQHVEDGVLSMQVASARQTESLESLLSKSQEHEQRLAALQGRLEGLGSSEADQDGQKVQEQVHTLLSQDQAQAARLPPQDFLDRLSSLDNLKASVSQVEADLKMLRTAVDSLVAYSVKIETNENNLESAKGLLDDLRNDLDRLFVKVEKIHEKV
The experiment in a line: co-IP with anti-FLAG antibody from X293T/Dkk1-FLAG cell lysate, immunoblot with anti-HA antibody. The source says: A lysate (Input) of X293T/Dkk1-FLAG cells in which wild-type CKAP4-HA (WT) or a deletion mutant CKAP4-HA (ΔLZ) was transiently expressed was immunoprecipitated with an anti-FLAG antibody, and then the cell lysate (Input) and the immunoprecipitates (IP) were subjected to the detection of HA and Dkk1 using an anti-HA antibody and an anti-Dkk1 antibody, respectively. The results are shown in the lower right panel in FIG. 2 (e). […] Namely, it was confirmed that a CRD-1 domain located on the N-terminal side of Dkk1 and a leucine zipper domain of CKAP4 were necessary for the binding between Dkk1 and CKAP4.

The target in experiment [2] is p85α of S2-CP8 cells (endogenous) (human, UniProt P27986 2-724). The experiment in a line: co-IP with anti-CKAP4 antibody from S2-CP8 cell lysate (control shRNA or Dkk1 shRNA), immunoblot. On the procedure:
A lysate (Input) of S2-CP8 cells in which control shRNA or Dkk1 shRNA (Dkk1) was stably expressed was prepared. The lysate was immunoprecipitated with an anti-CKAP4 antibody. Subsequently, the cell lysate (Input) and the immunoprecipitates (IP) were subjected to the detection of p85α, p110β, CKAP4 and Dkk1 using an anti-p85α antibody, an anti-p110β antibody, an anti-CKAP4 antibody and an anti-Dkk1 antibody, respectively.
(In general: In western blotting, separated proteins are transferred to a membrane and probed.)

Sequence of p85α of S2-CP8 cells (endogenous) (P27986 2-724): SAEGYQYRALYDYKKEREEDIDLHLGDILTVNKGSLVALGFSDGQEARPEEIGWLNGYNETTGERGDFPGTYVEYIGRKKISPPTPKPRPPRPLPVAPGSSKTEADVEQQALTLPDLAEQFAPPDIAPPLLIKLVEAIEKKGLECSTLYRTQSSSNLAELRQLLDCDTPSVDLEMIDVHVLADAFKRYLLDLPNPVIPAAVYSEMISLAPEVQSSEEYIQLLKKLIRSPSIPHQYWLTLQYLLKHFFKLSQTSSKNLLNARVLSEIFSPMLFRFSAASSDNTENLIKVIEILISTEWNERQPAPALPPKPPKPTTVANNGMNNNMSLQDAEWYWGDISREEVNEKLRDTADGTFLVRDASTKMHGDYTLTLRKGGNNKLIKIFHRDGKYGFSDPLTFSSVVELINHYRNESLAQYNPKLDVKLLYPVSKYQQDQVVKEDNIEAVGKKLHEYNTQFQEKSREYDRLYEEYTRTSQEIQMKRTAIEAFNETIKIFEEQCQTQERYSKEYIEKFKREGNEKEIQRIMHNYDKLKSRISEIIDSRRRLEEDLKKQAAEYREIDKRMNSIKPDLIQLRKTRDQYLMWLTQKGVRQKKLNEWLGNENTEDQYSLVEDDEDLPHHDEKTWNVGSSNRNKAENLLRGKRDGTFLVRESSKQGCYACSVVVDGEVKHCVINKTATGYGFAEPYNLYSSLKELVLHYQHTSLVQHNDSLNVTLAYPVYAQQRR

B1: Dkk1-FLAG (wild-type human Dkk1 tagged with FLAG at the C-terminal) (ligand, UniProt O94907 32-266, looked up)
chain: TLNSVLNSNAIKNLPPPLGGAAGHPGSAVSAAPGILYPGGNKYQTIDNYQPYPCAEDEECGTDEYCASPTRGGDAGVQICLACRKRRKRCMRHAMCCPGNYCKNGICVSSDQNHFRGEIEETITESFGNDHSTLDGYSRRTTLSSKMYHTKGQEGSVCLRSSDCASGLCCARHFWSKICKPVLKEGQVCTKHRRKGSHGLEIFQRCYCGEGLSCRIQKDHHQASNSSRLHTCQRH
notes: Expressed in MDCK or X293T cells; pulled down from cell lysates with an anti-FLAG antibody; also called WT-FLAG; wild-type Dkk1-FLAG (WT); not shown: FLAG tag at the C-terminal
For B1, the binding result in experiment [1] was “no binding”.

B2: CKAP4 of S2-CP8 cells (endogenous) (receptor)
chain: MPSAKQRGSKGGHGAASPSEKGAHPSGGADDVAKKPPPAPQQPPPPPAPHPQQHPQQHPQNQAHGKGGHRGGGGGGGKSSSSSSASAAAAAAAASSSASCSRRLGRALNFLFYLALVAAAAFSGWCVHHVLEEVQQVRRSHQDFSRQREELGQGLQGVEQKVQSLQATFGTFESILRSSQHKQDLTEKAVKQGESEVSRISEVLQKLQNEILKDLSDGIHVVKDARERDFTSLENTVEERLTELTKSINDNIAIFTEVQKRSQKEINDMKAKVASLEESEGNKQDLKALKEAVKEIQTSAKSREWDMEALRSTLQTMESDIYTEVRELVSLKQEQQAFKEAADTERLALQALTEKLLRSEESVSRLPEEIRRLEEELRQLKSDSHGPKEDGGFRHSEAFEALQQKSQGLDSRLQHVEDGVLSMQVASARQTESLESLLSKSQEHEQRLAALQGRLEGLGSSEADQDGLASTVRSLGETQLVLYGDVEELKRSVGELPSTVESLQKVQEQVHTLLSQDQAQAARLPPQDFLDRLSSLDNLKASVSQVEADLKMLRTAVDSLVAYSVKIETNENNLESAKGLLDDLRNDLDRLFVKVEKIHEKV
notes: Used in lysates (IP, immunoblot) and on unfixed cells (staining)
On to B2, for which, in experiment [2], the binding result is given as “binds”.

Values taken from patent US20180037649A1 (OSAKA UNIVERSITY, published 2018).
